The target of data set [1] is Nab2-FRB (S. cerevisiae | not stated).
The target in data set [2] is T1, SII-Nab2 (Saccharomyces cerevisiae, UniProt P32505 1-525).
T1 sequence: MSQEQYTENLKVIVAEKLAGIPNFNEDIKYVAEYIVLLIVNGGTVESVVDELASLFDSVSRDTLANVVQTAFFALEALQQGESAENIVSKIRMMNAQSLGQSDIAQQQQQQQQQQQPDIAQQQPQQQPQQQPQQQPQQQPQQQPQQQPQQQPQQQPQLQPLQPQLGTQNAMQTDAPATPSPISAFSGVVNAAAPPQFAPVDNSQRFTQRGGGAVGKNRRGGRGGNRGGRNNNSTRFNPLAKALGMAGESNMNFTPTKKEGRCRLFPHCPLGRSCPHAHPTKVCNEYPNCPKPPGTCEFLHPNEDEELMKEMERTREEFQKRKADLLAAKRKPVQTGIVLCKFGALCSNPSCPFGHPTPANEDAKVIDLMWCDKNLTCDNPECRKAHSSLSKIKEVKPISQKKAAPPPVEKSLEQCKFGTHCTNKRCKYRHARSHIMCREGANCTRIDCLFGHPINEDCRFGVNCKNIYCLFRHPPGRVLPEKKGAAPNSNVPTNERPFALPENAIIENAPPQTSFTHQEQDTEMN
The data set can be described thus: switchSENSE; kon 2.05e6 +/- 0.14e6 M-1 s-1; Kd only in Fig 2E table; switchSENSE: 12.5 mM HEPES-KOH pH 8.0, 75 mM KOAc, 1 mM Mg(OAc)2, 0.025 mM EDTA, 25 C; EMSA: polyadenylation buffer + 5% glycerol, 10 nM RNA, 30 C 1.5 h, native PAGE pH 6.4 at 4 C. To be noted: protein: recombinant; tags: N-terminal SII; label: red dye on NL-B48; chip-tethered; 68 bp dsDNA (nicked) with 3' RNA overhang 60 nt. A general note: In EMSA bound probe runs differently from free probe, usually more slowly.

Data set [3] has as its target T1, SII-Nab2. In words: switchSENSE; kon 1.2e6 +/- 0.17e6 M-1 s-1; Kd only in Fig 2E table; switchSENSE: 12.5 mM HEPES-KOH pH 8.0, 75 mM KOAc, 1 mM Mg(OAc)2, 0.025 mM EDTA, 25 C; EMSA: polyadenylation buffer + 5% glycerol, 10 nM RNA, 30 C 1.5 h, native PAGE pH 6.4 at 4 C. The following applies: protein: recombinant; tags: N-terminal SII; label: red dye on NL-B48; chip-tethered; 68 bp dsDNA (nicked) with 3' RNA overhang 30 nt.

For data set [4], the target named is T2, Nab2-6xHis (Saccharomyces cerevisiae, UniProt P32505 1-525).
T2 sequence: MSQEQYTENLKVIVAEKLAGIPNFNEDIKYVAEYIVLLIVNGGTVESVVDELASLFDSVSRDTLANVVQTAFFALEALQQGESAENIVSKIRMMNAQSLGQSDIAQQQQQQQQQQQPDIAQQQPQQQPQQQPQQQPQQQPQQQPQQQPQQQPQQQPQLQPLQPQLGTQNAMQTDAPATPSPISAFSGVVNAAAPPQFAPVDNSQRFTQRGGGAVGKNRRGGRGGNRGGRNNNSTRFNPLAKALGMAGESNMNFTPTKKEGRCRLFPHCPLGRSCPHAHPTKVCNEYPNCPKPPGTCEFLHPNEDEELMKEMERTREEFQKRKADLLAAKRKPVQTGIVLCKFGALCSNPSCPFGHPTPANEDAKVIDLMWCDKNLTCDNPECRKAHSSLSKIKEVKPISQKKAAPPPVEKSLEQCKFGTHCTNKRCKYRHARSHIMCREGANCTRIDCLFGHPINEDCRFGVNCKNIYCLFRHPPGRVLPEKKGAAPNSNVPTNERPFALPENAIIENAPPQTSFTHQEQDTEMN
In words: EMSA; Hill coefficient 2.7; multiple shifted bands; switchSENSE: 12.5 mM HEPES-KOH pH 8.0, 75 mM KOAc, 1 mM Mg(OAc)2, 0.025 mM EDTA, 25 C; EMSA: polyadenylation buffer + 5% glycerol, 10 nM RNA, 30 C 1.5 h, native PAGE pH 6.4 at 4 C. The following applies: protein: recombinant; tags: C-terminal 6xHis; label: Atto680; single strand.

Data set [5] addresses T2, Nab2-6xHis. In words: SEC-MALS; bimodal peak; one Nab2 with 1-3 A30; dimer less stable; switchSENSE: 12.5 mM HEPES-KOH pH 8.0, 75 mM KOAc, 1 mM Mg(OAc)2, 0.025 mM EDTA, 25 C; EMSA: polyadenylation buffer + 5% glycerol, 10 nM RNA, 30 C 1.5 h, native PAGE pH 6.4 at 4 C. The following applies: protein: recombinant; tags: C-terminal 6xHis; single strand. (In general: In gel filtration, larger molecules generally elute earlier.)

Nab2-FKBP12: the modal poly(A) tail length of the substrate RNA that escaped early inhibition, 1 µM Nab2 with rapamycin (∼42 As in a reaction without rapamycin) in data set [1] was 36 As.

B1: rA60 nanolever (mixed)
DNA 1: ATTGTGCTCGTCAGTAGTGTAAAAAAAAAAAAAAAAAAAAAAAAAAAAAAAAAAAAAAAAAAAAAAAAAAAAAAAAAAAA
DNA 2: ACACTACTGACGAGCACAATATCAGCGTTCGATGCTTCCGACTAATCAGCCATATCAGCTTACGACTA
DNA 3: TAGTCGTAAGCTGATATGGCTGATTAGTCGGAAGCATCGAACGCTGAT
modifications: 3' 60 nt RNA on DNA handle
On to B1, for which the binding signal in the data set with SII-Nab2 [2] was ~5 fold higher affinity than rA30.

B2: rA30 nanolever (mixed)
DNA 1: ATTGTGCTCGTCAGTAGTGTAAAAAAAAAAAAAAAAAAAAAAAAAAAAAA
DNA 2: ACACTACTGACGAGCACAATATCAGCGTTCGATGCTTCCGACTAATCAGCCATATCAGCTTACGACTA
DNA 3: TAGTCGTAAGCTGATATGGCTGATTAGTCGGAAGCATCGAACGCTGAT
modifications: 3' 30 nt RNA on DNA handle
For the molecule B2, in the data set with SII-Nab2 [3], the binding signal was ~0.2 affinity relative to rA60.

B3: Atto680-A59 (R003) (ssRNA)
RNA: AAAAAAAAAAAAAAAAAAAAAAAAAAAAAAAAAAAAAAAAAAAAAAAAAAAAAAAAAAA
Consider B3, for which the binding result with Nab2-6xHis [4] is listed as “binds”. AAAAAAAAAAAAAAAAAAAAAAAAAAAAAA (ssRNA, phosphate) [A30 (R002)]: the binding result with Nab2-6xHis [5] is on record as “binds”.

These data come from PMC12581835, “A kinetic ruler controls mRNA poly(A) tail length”.
